{
  "source": "patent US20060070134",
  "target": "Human E1 (ubiquitin-activating enzyme) (UniProt P22314)",
  "sequence (P22314 whole entry)": "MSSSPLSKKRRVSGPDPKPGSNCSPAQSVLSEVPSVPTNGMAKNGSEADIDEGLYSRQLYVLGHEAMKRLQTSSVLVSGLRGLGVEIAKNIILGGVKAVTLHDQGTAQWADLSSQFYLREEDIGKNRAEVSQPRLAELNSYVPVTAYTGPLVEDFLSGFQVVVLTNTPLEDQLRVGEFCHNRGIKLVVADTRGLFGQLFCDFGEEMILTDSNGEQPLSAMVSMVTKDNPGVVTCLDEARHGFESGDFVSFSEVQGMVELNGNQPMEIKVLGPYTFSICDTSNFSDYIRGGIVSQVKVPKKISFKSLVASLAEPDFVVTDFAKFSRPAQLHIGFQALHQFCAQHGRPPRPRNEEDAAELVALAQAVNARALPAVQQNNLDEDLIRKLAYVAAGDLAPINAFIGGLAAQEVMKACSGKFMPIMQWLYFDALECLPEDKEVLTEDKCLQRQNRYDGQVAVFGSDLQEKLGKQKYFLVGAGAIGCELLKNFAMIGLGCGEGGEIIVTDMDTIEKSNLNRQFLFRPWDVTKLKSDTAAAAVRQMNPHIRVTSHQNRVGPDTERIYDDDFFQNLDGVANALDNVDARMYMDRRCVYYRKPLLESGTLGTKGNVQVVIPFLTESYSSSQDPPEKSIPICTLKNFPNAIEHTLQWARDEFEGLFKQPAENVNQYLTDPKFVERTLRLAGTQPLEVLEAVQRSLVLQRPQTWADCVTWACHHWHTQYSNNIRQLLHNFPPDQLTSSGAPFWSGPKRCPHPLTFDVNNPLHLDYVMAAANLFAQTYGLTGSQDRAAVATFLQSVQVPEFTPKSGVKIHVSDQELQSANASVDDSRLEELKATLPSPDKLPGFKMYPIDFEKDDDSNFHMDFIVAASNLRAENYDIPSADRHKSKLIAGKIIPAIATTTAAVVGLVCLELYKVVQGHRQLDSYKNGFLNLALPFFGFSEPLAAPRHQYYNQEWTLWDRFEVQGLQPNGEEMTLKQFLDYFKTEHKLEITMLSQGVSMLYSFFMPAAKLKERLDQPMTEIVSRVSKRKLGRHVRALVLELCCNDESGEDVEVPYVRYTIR",
  "data": [
    {"substance": "FLJ11011v2", "values": [
      {"measurement": "ubiquitinylation reaction, anti-Ub western blot", "result": "FLJ11011v2 is efficiently ubiquitinylated in this assay"}
    ]}
  ]
}
